Like-named read-outs stand apart in the source and are kept apart here.
Experiments:
[1] = target: T1, recombinant ANDV Gn^H/Gc heterodimer (Andes virus (ANDV)); experiment: BLI
[2] = target: PUUV GnH/Gc; experiment: BLI
[3] = target: PUUV (Puumala virus (PUUV)); experiment: ELISA
[4] = target: PUUV GnH/Gc; experiment: BLI; remark: listed apart in the source
[5] = target: T1, recombinant ANDV Gn^H/Gc heterodimer; experiment: BLI; remark: listed apart in the source

B1: ADI-42898 Fab (Fab, V domains shown)
VH: QVQLVESGGGVVQPGRSLRLSCAASGFTFSSYAMHWVRQAPGKGLEWVAVTWFDVSKKDYADSVKGRFTISRDNSKNTLYLQMNSLRAEDTAVYYCARNLIRYSGSYFPVHGMDVWGQGTTVTVSS
VL: DIVMTQSPLSLPVTPGEPASISCRSSQSLLHTYGYNSLDWYLQRPGQSPQLLISLGSYRASGVPDRFSGSGSGTDFTLKISRVEAEDVGVYYCMQALHPFTFGGGTKVEIK
Work on B1 yielded a Kd [1] of 19600 nM and a Kd [2] of 1.9 nM.

B2: IgG (antibody, V domains shown)
VH: B1 VH
VL: B1 VL
With B2 the EC50 [3] was under 0.1 nM.

B3: ADI-42898 IgG (antibody, V domains shown)
VH: B1 VH
VL: B1 VL
Work on B3 yielded a Kd [4] of 1.5 nM.

B4: ADI-42898 (antibody, V domains shown)
VH: B1 VH
VL: B1 VL
In the case of B4, the Kd [5] is reported as 2.8 nM.

Source: patent US20260250362A1 (published 2026)
